Target: GLP1 receptor (human) (UniProt P43220)
Sequence (P43220 24-463): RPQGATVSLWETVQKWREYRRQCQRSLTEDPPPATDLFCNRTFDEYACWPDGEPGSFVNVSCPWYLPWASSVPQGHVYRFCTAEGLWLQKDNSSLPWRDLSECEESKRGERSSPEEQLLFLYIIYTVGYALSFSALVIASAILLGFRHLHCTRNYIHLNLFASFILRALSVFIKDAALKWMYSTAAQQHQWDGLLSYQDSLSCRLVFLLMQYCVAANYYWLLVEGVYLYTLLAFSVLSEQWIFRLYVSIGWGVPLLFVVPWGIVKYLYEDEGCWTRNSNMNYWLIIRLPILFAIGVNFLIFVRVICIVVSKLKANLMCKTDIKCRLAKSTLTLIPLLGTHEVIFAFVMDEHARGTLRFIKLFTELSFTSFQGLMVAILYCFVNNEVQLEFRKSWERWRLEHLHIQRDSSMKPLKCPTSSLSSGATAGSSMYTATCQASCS

EC50 of CRE-luciferase expression in HEK293 cells stably expressing GLP1R: 2.2 µM
Substance: (D)-GLP1 peptide (designed binder)

From publication PMC5816147
